Data on two molecules can be found in patent publication US9181340B2, “TEM8 antibodies, conjugates thereof, and their use” (The United States of America, as represented by the …, priority 2011, dated 2015).

The test system of assay [1] is NCI-H460 tumors. The assay is described as follows: NCI-H460 lung cancer xenograft in nude mice. In kind it is in vivo, mouse. Particulars: L2-mIgG2a 20 mg/kg 3 times per week; DMXAA 25 mg/kg then 5 mg/kg/day for two days; tumors 100 mm^3.
In assay [2] the target is CMG2 (CHO-CMG2) (Homo sapiens, UniProt P58335). The assay is described as follows: Flow cytometry staining of CHO-CMG2 cells. The assay is classed as binding. Particulars: CMG2 transfectants of CHO/PR230. On the procedure:
(§1) Trypsinized cells were rinsed in cold PBS/0.5% BSA (PBS/BSA) and labeled with anti-TEM8 Fabs (human) or full IgG (human-mouse) primary antibodies in PBS/BSA containing 10% goat serum at 4° C. Cells were rinsed with PBS/BSA and incubated with FITC-conjugated goat anti-human Fab or anti-mouse IgG secondary antibodies (Jackson Immunoresearch, West Grove, Pa.), rinsed again, and analyzed on a FACScalibur flow cytometer (Becton Dickinson, Franklin Lakes, N.J.) using CellQuest™ Software.
(Flow cytometry measures light scatter and fluorescence of single cells or particles in a stream.)

Assay [3] addresses human TEM8 (CHO-TEM8) (Homo sapiens, UniProt Q9H6X2). The assay is described as follows: Flow cytometry staining of CHO-TEM8 cells. The assay is classed as binding. Here is the method: as §1
Assay [4] concerns UACC human melanoma xenografts. The assay is described as follows: UACC melanoma xenograft in nude mice. In kind it is in vivo, mouse. Particulars: dose-escalation study, 15 mg/kg 3× per week.
For assay [5], the system named is HCT-116 tumors. The assay can be described thus: HCT-116 colon xenograft in nude mice. To be noted: treatment 3 times per week from 50 mm^3.
In assay [6] the test system is CHO-TEM8 cells treated with lethal toxin. The assay is classed as cell-based, Chinese Hamster.

Sequence of human TEM8 (CHO-TEM8) (Q9H6X2 33-564): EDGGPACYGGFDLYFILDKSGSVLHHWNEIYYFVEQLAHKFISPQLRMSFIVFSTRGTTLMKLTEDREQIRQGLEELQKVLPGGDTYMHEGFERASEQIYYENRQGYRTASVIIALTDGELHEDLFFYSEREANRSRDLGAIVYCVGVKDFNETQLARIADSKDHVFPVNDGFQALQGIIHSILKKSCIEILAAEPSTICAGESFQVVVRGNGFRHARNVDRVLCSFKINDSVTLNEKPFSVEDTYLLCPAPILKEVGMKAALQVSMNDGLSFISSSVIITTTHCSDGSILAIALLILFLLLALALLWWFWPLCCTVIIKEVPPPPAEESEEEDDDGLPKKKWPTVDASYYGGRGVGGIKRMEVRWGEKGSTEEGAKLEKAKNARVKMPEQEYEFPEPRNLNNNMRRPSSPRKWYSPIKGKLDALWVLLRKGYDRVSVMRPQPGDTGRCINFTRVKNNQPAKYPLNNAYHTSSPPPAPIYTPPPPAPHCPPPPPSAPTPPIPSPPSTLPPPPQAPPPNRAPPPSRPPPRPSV
Sequence of CMG2 (CHO-CMG2) (P58335 34-489, species assumed): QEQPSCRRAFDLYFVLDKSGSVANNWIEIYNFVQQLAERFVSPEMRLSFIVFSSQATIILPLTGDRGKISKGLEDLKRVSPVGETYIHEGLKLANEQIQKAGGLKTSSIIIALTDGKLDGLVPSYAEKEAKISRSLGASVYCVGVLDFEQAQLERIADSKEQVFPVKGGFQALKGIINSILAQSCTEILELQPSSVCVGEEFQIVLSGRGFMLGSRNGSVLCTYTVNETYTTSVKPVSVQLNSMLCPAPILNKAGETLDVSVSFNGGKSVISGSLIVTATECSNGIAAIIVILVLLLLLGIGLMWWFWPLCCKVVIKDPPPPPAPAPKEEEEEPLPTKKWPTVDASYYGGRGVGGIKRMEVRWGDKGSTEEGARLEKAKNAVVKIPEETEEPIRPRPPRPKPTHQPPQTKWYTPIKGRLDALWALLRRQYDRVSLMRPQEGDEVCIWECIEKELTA

Regarding `Cc1ccc2c(=O)c3cccc(CC(=O)O)c3oc2c1C` [DMXAA, 5,6-dimethylxanthenone-4-acetic acid, reference compound], in assay [1], the NCI-H460 tumor growth result was “significantly delayed tumor growth”.

B1: L5-mIgG2a: mouse/human chimeric anti-TEM8 IgG: human L5 variable domains fused with mouse IgG2a constant domains (antibody, V domains shown)
VH: QVQLVESGGGLVQPGGSLRLSCAASGFTFNSYGLSWVRQAPGKGLEWVSNISSNGSYTYYADSVKGRFTISRDNSKNTLYLQMNSLRAEDTAVYYCARAGYGLFDVWGQGTLVTVSSVL
VL: DIELTQPPSVSVAPGQTARISCSGDKLREYYVHWYQQKPGQAPVLVIYGDNKRPSGIPERFSGSNSGNTATLTISGTQAEDEADYYCSSWAGSRSGTVFGGGTKLTVL
On to B1, for which the “reactivity with CMG2” value in assay [2] is given as “failed to react with CMG2”. In assay [3], the “staining of CHO-TEM8 cells” value was “stained”. In addition, the “UACC tumor growth inhibition at 15 mg/kg” value in assay [4] was “partial growth inhibition”. The HCT-116 tumor growth result in assay [5] is on record as “inhibited HCT-116 tumor growth”. Besides, the “EC50 of protection from lethal toxin toxicity” value in assay [6] turned out to be 2.575 µg/mL.
